In the DeepSol protein solubility set:

Test: soluble on expression in E. coli; label from the status in PepcDB or PDB records

| Sequence | soluble on expression in E. coli |
| --- | --- |
| MRLLTCDCTFMGQKHSGSVSVEKKNQENDGPPTYEIVFGWSQSFENLMKHRAGQKYFAEFLKGEYSDENILFWQACEELKREKNAEKIEEKARIIYEDFISILSPKEVSLDSRVREIVNTNMGRPSASTFDEAQNQIYTLMQRDSYPRFLASNIYKTVMGTFGIKEEAV | not soluble |
| MRLSFRTLQRRNALGDAPRHRSAQRRAVKTGRRASRTACDAERRTIVERAWHDSLEHHHHHH | not soluble |
| MRLVIARCSVDYIGRLEAHLPMADRLLMVKADGSVSIHADDRAYKPLNWMTPPCTLTETTHEESETGESIPLWIVENKKGEQLRITIEALHSDMYYDLGEDPGLQKDGVEAHLQELLAEHIETLGDGYSLVRREYPTPIGPVDILCRDDKGGSVAVEIKRRGGIDGVEQLSRYLELLNRDDLLAPVAGVFAAQHIKPQARTLAEDRGIRCVTLDYDSLRGIESTELRLF | not soluble |
| MRNITNFLKTFLLWELLKGLKVTGKHFFTRKVTVQYPDEKTPISNRFRGLHALRRYENGEERCIACKLCEVVCPALAITINSTEREDGTRRTSSYEMDLFKCIFCGYCEESCPVDSIVETNILEYHFEERGENIMTKAKLLAIGDKYEAQIAADRLQDKDFR | not soluble |
| MRNTDRKRAQGVSRLDRRDSRMRRVGTYGGRKLIEYDQERWNILAEKRERAKEVMESLLSFGIESVVYGSVARGDVNEKSDVDIFIPEVIPSYKVEVALDGFEVLEKRIVQATPNYAIKGEFVLSDNTTVSFPLVRMREREMDFYRFGGCVDYRGLMEKRRVPGVDKRLVLIIPTGKGHREIPLTDIHPSSVARMLGVSIDIVTERIRVLTRRREVGRTGIFLCETIPSTDCFEQALKEIASRNPAVRRRLD | not soluble |
| MRNTIEIEDPNHRPFTISSNYAYYIGYLDLRPDGMGYHKRGEMNGLWYPPLRVLKNIYVSDGKTVFKPAHAEIGYSEARFEFYGTTLQISFQDDNDFEIAVKNASNDVRKLIVELHPETVWYTVNDTRIKVNRRSAIIYSHMFPETRLRIAASSEFSIENGRLSLLADGKSSLRISSACLHSHRPPIRVNRYRDIDRFSLLRGGGQIGENFRTAKDNLIRLSLINQETGYGLTAGHPDFPWYFGIDTLLSFNGILDAGLFELAFGSLNILARYSKSGKIPHEILTSGKVYNDGDLEETALFPYAVFKYAEWAGYTEEMRHLATIASESFNYLFAHGFQGRGIMEDPKAGEGVDIDTISFTIMSLMELQKVMDMDQEAFGGIADAVKPTEAIDALRKTVQSFWMSERRTFANRIVDGVPVDLGFWTSIIPFYTGIAGIDQYRKFVSDGGGLSRISSSSGIVVDASGNSMPVNTGMFVLGSIRYGDAENAARYFKMLDRSLGLFSPGAYPEISNNPQGCYLQAWSAAIYIESIVEGFFGIHSEGGRLISKPFNSSLMPGGATLKNVRFRNKYYDFIL | not soluble |
| MRPLILSIFALFLAGCTHSQQSMVDTFRASLFDNQDITVADQQIQALPYSTMYLRLNEGQRIFVVLGYIEQEQSKWLSQDNAMLVTHNGRLLKTVKLNNNLLEVTNSGQDPLRNALAIKDGSRWTRDILWSEDNHFRSATLSSTFSFAGLETLHIAGRDVLCNVWQEEVTSTLPEKQWQNTFWVDSATGQVRQSRQMLGAGVIPVEMTFLKPAP | not soluble |
| MRPMALPAWREVALPHEDIRRGRFDESTFAADLADVLAGRGPLEYRDPLTFFRKTYPTKGMVRLLGAVVRRLSGEKGGEPVVQIQTPFGGGKTHGLVALYHLFRSGEEARGTELYARVLEEAGVERIPEAKVAVFVGTAADPLKGRTPWGELALQLGHYGLLEEHDKARQAPGKERLYELFRAAGGPVLILMDEVAEYVARTVDPTALHKEGGSLEGGRAYQTQVLAFFQELTEAVKVAPQVALVMTIPSSAPYGEEGERALLQLQRIAGRLEAIYEPVKGWEIYDVIRTRLFEGIRDEGVVRKVAERYFELYRRLGTEVPDEARDPAYRERMRRAYPFHPELIDALYERWGTLSTFQRTRGVLRFLAEIVADLYGREHSAPLIHSAHVNLANPSIRRELVKHIGNEFDSVIAADIADPEGQAKAQRLDREMGSEYVRFQVASGLATAIFLYSFSGGERKGASPAQLRLAALRPEVPPPLVGDALGRLRELLWYLHEASGLYYFSSQPNLNRIVVERENAVDPEQIRQALRERLERIAGRELRVYLEPHSPQDVPDTKELKLAVLSEPSGSLAEELLEKAGTTFRTYKNTLFLLSPDPNSLGDLHRAARRYLALRSIREDRTLYGQLSAENRHRLDELLREADGALTQKLFMAYRRLTKPGRQGPETYDMGIPTVGEASTLAKRVYEYLKAREFLLERIAPRHLLSALAQGETGKPLQEVYEAFLRYPHLPVLKGWEVLEEAVRKGVAEGTFGLRVGERYYFQEPVLGIAWEEAFLVRKEALPPERESVVDGEKKGEASSEGVAPKPDSSEEEVPPDSSGGEARPERVQEYTVKVRLPWNRLSDFLRGVLMPLQREGAEMELQIELRARSQEGIPRATLDKIRETLDQLQAKVEEA | soluble |
| MRPVLLLCCLFLSATAQAEDCSPQTSVGSWCELPLAALHPTQQNVGLLQVEDDQAKLAGKKPKALERYLRKKEIPVVIGPGGRFYLTDRHHLSSALWRLDPKQGVPVKVIGRLPQASDFWEKMQENHWVWLHDARGAEIPPEALPDALAGLGDDPYRALAGYAEDENAFDKDRQSYFIEFHWARYFGERMHWRPISRATLPDDLKQALRLACEPAARELPGYRQDCPH | soluble |
| MRRAGLGEGVPPGNYGNYGYANSGYSACEEENERLTESLRSKVTAIKSLSIEIGHEVKTQNKLLAEMDSQFDSTTGFLGLCPM | soluble |
| MRRICKDERRIQSVNSSEEIAVSGMSAGRSAMRMGPAELVQAAAMARRFYLEGKSKIQIAEEFGVSRFKVARVLETALERDLVRIEIRVPAELDAERSDALRARYGLRHAVVVESPADAEETPDPENLGEVAADLLGELVNEGDVLGLAWGRSTIHMAAALDRLPPCTVVQLTGVYDAGTAERGSVEAVRRAAQVSGGDAHPIYAPMLLPDAATAQALRHQTGIARAFEYFDKVTVACVSIGSWEPGISTVHDMLSDEERAHYASLGVAAEMSAHLFDAEGRRVGRDLGERCITVKADQLRRIPEVVAIAGGQRKAAAIDAVLRSGLVTSLVTDTSAADYLMTVGSAPKSTLNRTDPDGI | not soluble |
| MRRILSVLLENESGALSRVVGLFSQRAFNIESLTVAPTDDPTLSRMTIEAVGDAQALEQIEKQLHKLVDVFKVVNLSEQEHIEREIVLAKVRAVGSSRDEIKRLADIFRGQIVDVTPKSYTIQLSGTNDKVDAFISALKEETTLLEIVRSGLISVSRGEKNILLEHHHHHH | not soluble |
| MRRLGKQEIEDIAVGAALLGTGGGGDPYIGKLMALQAIEEYGPIQLLSVDEIDDEAVVVPSGMMGAPTVMIEKVPNGEEAIAAFQTLEQYLGKKIFATMPIEAGGINSLLPLALAARLGLPVVDVDGMGRAFPELQMVTFYLDGISATPLVIADEKGNHSVLNTVNNMWAERIARAATIQMGGSVMMAIYPMVGKQLKESGIHHILKLEEDIGRIIREAKGTNANPIAEVLSLVGGFELFKGKVVDINRKTESGFARGTAHIQGFDLYHDQTLEIKFQNEHLLAKTPDQLLCVTPDLIAILDSETGLPITTEGLKYGARCVVIGIPCHPKWRTAKGIETCGPAYFGYDVDYVPVENLVKEGAQTKLEHHHHHH | soluble |
| MRRNKRERQELLQQTIQATPFITDEELAGKFGVSIQTIRLDRLELSIPELRERIKNVAEKTLEDEVKSLSLDEVIGEIIDLELDDQAISILEIKQEHVFSRNQIARGHHLFAQANSLAVAVIDDELALTASADIRFTRQVKQGERVVAKAKVTAVEKEKGRTVVEVNSYVGEEIVFSGRFDMYRSKHSLEHHHHHH | soluble |
| MRSGQMEIIIGWLYPQLMSTYGDRGNVIIIERRAQWREYNVTVLPLDQNSTPDDLKSVDVIVGGGAQDRQQEIVMRDLQGAKADAMREKIENGTPGVFTCGSPQLLGHYYEPGFGQRIEGLGILDLVSIHPGENTKRCIGNLVIEVTASRFAQELEAMTGTKPYLVGFENHGGRTKLGKVEALGRVVYGLGNNGEDGTEGAFYQNAIATYSHGPLLPKNPFVADWLIQTALRLKYQEEIQLSPLNDTLAMQGREAMFKRLKVNLPLAGRI | not soluble |
| MRTLAIDIGGTKIALAIVEEGTIIQRYQIATPVVQDVTKFVQAILEKVTEWLPSIDYVGVSTTGYVTPEGITSINPETLNFPVPFPLAQTLEQLTNKPVSILNDAQAAAWFEFVQLKNPSLNMAFITVSTGVGGGIIIDGKLHKGNSGLAGHIGHMSVAIEGPLCGCGQRGCVESMASGNAIQKESEATFTETMSNVELFKQAAFNPKAEAIINRSVQAVATLCCNLKACLDLDIIVLGGGIGLAEGYLERLNKAIQSRPSVFHIPVTPAHGDYDACLLGAAFQFKE | not soluble |
| MRTLFLELMEQYVVAKNPKLMLRRSETVVERMLSNWMSICLYQYLKDSAGEPLYKLFKAIKHQVEKGPVDAVQKKAKYTLNDTGLLGDDVEYAPLTVSVIVQDEGIDAIPVKVLNCDTISQVKEKIIDQVYRTQPCSCWPKPDSVVLEWRPGSTAQILSDLDLTSQREGRWKRINTLMHYNVRDGATLILSKVGVSQQPEDSQQDLPGERHALLEEENRVWHLVRPTDEVDEGKSKRGSMKEKERTKAITEIYLTRLLSVKGTLQQFVDNFFQSVLAPGHAVPPAVKYFFDFLDEQAEKHDIRDEDTIHIWKTNSLPLRFWVNILKNPHFIFDVHVHEVVDASLSVIAQTFMDACTRTEHKLSRDSPSNKLLYAKEISTYKKMVEDYYKGIRQMVQVSDQDMNTHLAEISRAHTDSLNTLVALHQLYQYTQKYYDEIINALEEDPAAQKMQLAFRLQQIAAALENKVTDL | not soluble |
| MRTLLLAGGLLVLSGCSLLMPTPDPNRAWVDLDTQPDADLAAVEVDDKSWDRTRYFEVDPGTRELTVRYQFTVDPTNIGPVDSPLWRDCQLNLKFKDFSAGQRYRLEAGHIGFRPWAKLYDQDNRELARGREGRCAKV | not soluble |
| MRTRIDYLADKYCFTERNESPRLRRQWQDVLEECRQTEAGPEERLRIALLNVDYVTSFELPFRLLLTRTPQLIAALREEWGISQKNVVFNDKRFGCVYSLKASLSGVPDTYRYHLSHRIRRVVGNENTSLPYQQVAREVKAPRERLKYALEAGLLVTALDGLFRFGSQRIAADVLRLRKAGMPVVTTTVEVHDNLTGTTRKVPAYHL | not soluble |
| MRTVIFDLDGTLADTSGDLLAAANHCFRDMGLGDVLVPGQDAGIALRGGRMMLTRGLERVGAYDAATVERYYPVLLEAYRGAIDHHSFLYPGAMDAVEELRRAGYGVGICTNKPEALADLLLQRLGVRDAFAALIGADTLPVRKPDPEPLRAAARAAGGDPAACVLVGDSDTDRNTARAAGVPSILVTFGPSGDDMAALEPEALLERFEDLPHVVTRLIG | not soluble |
| MRVAVVGATGAVGREILKVLEARNFPLSELRLYASPRSAGVRLAFRGEEIPVEPLPEGPLPVDLVLASAGGGISRAKALVWAEGGALVVDNSSAWRYEPWVPLVVPEVNREKIFQHRGIIANPNCTTAILAMALWPLHRAFQAKRVIVATYQAASGAGAKAMEELLTETHRFLHGEAPKAEAFAHPLPFNVIPHIDAFQENGYTREEMKVVWETHKIFGDDTIRISATAVRVPTLRAHAEAVSVEFARPVTPEAAREVLKEAPGVEVVDEPEAKRYPMPLTASGKWDVEVGRIRKSLAFENGLDFFVVGDQLLKGAALNAVQIAEEWLKGA | soluble |
| MRVIKIQTKGDVRISYAIETIRINEWTKAIAEVIFEKDGVPEWEIEAVSRMSSDYVGSLGSEFEILDVSIDRRTNSYKIKGKYEGFYLAGTPIEAIEKDIVESVLSLRFESLDVYEVNIEDPFEDYDPSEYWELMDWEELEHHHHHH | not soluble |
